We go through 2 substances from article PMC3832671, “Two Homologous EF-G Proteins from Pseudomonas aeruginosa Exhibit Distinct Functions” (PLoS ONE, 2013).

As a reminder, the Km is the substrate concentration at which the rate is half of its maximum. As usually defined, the kcat is the maximal rate divided by the concentration of active sites. By kcat/Km is commonly meant the turnover number divided by the Michaelis constant.

Series [1] deals with T1, Nc1nc2c(ncn2[C@@H]2O[C@H](COP(=O)(O)OP(=O)(O)OP(=O)(O)O)[C@@H](O)[C@H]2O)c(=O)[nH]1.
T1 construct: full length (706 residues) with N-terminal 6xHis tag from pET-28b(+), NheI/HindIII; expressed in E. coli Rosetta 2(DE3); about 77 kDa
Nature of the series: ribosome-dependent GTPase, colorimetric Pi release, Lineweaver-Burk. The conditions noted are these: P. aeruginosa ribosomes 0.4 μM, EF-G1A 1.0 μM, 10 mM MgCl2, 70 mM NH4Cl, pH 7.5, kcat is kcat^obs. Format: biochemical, Pseudomonas aeruginosa. The source says:
ribosome-dependent GTPase, colorimetric Pi release, Lineweaver-Burk on EF-G1A

For series [2], the system named is T2, Nc1nc2c(ncn2[C@@H]2O[C@H](COP(=O)(O)OP(=O)(O)OP(=O)(O)O)[C@@H](O)[C@H]2O)c(=O)[nH]1.
T2 construct: full length (702 residues) with N-terminal 6xHis tag from pET-28b(+), NheI/HindIII; expressed in E. coli Rosetta 2(DE3); about 77 kDa
The description is as above. Format: biochemical, Pseudomonas aeruginosa. The conditions noted are these: P. aeruginosa ribosomes 0.4 μM, EF-G1B 0.3 μM, 10 mM MgCl2, 70 mM NH4Cl, pH 7.5, 37 °C, kcat is kcat^obs, text b30 prints 71 μM. The text has this:
ribosome-dependent GTPase, colorimetric Pi release, Lineweaver-Burk on EF-G1B

For EF-G1A (Pseudomonas aeruginosa PAO1), in series [1], the Km was 85 µM, the kcat stood at 0.04 s⁻¹ and the kcat/Km is 500 M⁻¹ s⁻¹.
With EF-G1B (Pseudomonas aeruginosa PAO1), in series [2], the Km came to 70 µM, the kcat turned out to be 0.2 s⁻¹ and the kcat/Km came to 3000 M⁻¹ s⁻¹.
